From patent publication US20240174992A1 (PROMEGA, published 2024) come the findings set out here.

Test [1] has as its target T1, HaloTag[22-297](M2F).
T1 construct: also called LgHT (M2F variant); Large HaloTag
Kind of test: apparent affinity from peptide titration (up to 1 mM) of the large fragment in E. coli lysate, JF646 fluorescence complementation; signal did not saturate.

Test [2] concerns the target T2, HaloTag[22-297](Q145H+P154R).
T2 construct: also called LgHT variant
Kind of test: apparent affinity from peptide titration of the large fragment in E. coli lysate, JF646 fluorescence complementation; signal approaches saturation.

Test [3] has as its target HaloTag[22-297](Q145H+P154R)-6×His. Kind of test: purified system, 80 nM large fragment, peptide titration, TMR ligand.

T2 sequence (chain, as listed by the source Q145H P154R Q145H P154R): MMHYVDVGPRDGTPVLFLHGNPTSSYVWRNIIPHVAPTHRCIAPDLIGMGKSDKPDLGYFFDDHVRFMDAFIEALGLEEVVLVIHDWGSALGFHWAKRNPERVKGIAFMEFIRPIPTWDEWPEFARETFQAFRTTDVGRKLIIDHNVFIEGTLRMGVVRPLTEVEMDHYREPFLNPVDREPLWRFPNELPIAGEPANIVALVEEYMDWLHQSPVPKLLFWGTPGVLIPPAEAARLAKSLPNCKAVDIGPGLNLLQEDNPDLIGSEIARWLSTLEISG
Sequence of HaloTag[22-297](Q145H+P154R)-6×His (chain, as listed by the source Q145H P154R Q145H P154R): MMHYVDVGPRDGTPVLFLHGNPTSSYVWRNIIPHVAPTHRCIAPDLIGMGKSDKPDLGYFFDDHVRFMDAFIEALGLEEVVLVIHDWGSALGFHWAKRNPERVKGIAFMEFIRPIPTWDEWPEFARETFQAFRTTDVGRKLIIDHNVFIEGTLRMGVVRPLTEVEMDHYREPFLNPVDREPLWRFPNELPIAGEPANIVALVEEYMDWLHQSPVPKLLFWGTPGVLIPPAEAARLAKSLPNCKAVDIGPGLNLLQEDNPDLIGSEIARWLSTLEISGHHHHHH
T1 sequence (chain, as listed by the source): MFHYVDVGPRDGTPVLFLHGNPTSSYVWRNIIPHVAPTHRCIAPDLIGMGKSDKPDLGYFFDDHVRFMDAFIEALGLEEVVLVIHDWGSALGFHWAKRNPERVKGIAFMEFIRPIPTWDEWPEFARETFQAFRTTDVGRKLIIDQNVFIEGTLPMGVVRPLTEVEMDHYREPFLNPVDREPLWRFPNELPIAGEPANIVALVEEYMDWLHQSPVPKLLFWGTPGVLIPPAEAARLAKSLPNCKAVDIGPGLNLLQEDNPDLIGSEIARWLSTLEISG

B1: synthetic HaloTag[3-19] peptide (peptide)
peptide: EIGTGFPFDPHYVEVLG
notes: also called HT(3-19); SmHT
On to B1, for which the values for the Kd in test [1] and in test [2] were more than 100 µM and approximately 1000 nM, respectively. The binding result in test [3] is “binds”.
